Test results reported in the DeepSol protein solubility set.

Assay: soluble on expression in E. coli; label from the status in PepcDB or PDB records

Q: Which “soluble on expression in E. coli” value does the source give for “MNNNEIYVSLDIGTSNVRIIIGEITDGSINIIGVGNAPSEGIKKGSIVDIDETVRSIRRAVEQAERMVGLSIRQVIVGVNGNHVQLQPCHGVVAVSSPDREIGDEDIARVIDAAQVVSIPPEREIIDVIPKQFIVDGLDEINDPRGMIGVRLEMEGTIITGSKTLLHNLLRCVERAGLEVADICLQALAAGSVAISKDEKSLGVCLIDIGGGSMTISCFEQGSLVDTSVIPVGGDHVTNDIAVGLRISTEEAIKIKHTHGHAYIDEASEEDRFEVKAIGSTEPEAFSQFELAHIIEPRMEEMFELINRELRRLGQHDFPGGFVLTGGSVMMPGVLELAKETLGRNVRVAIPDYIGVREPQYTTGVGLIQFAYKNVKIQGKEVAAAVAEAGVEQEQRPKKEKERSRTNEGPGVKSKVKNWFKVFLE” here?
A: not soluble

Q: With “LMVGGLLLAAASNNVQAEALQPDPAWQQGKLDNGFSWQLLATPQRPSDRIELRLIVNTGSLSENTQEVGFAHLLPRLALMSSASFTPAQLQSLWQQGIDNERPLPPAITSYDFTLYSLSLPNNRPDLLKDALAWLSDTAGNLAVSEQTVNAALNTATDPIATFPQNIQEPWWRYRLKGSSLIGHDPGQPVTQPVDVEKLKQFYQQWYTPDAMTLYVVGNVDSRSIAAQISKAFSELKGKRTAPAAVATLAPLPPEPVSLMNEQAAQDTLSLMWDTPWHPIQDSMALSRYWRSDLAREALFWHIKQVLEKNNQKNLKLGFDCRVQYQRAQCAIHLNTPVENLTANMTFVARELAALRANGLSQAEFDALMTQKNDQLSKLFATYARTDTDILMSQRLRSQQSGVVDIAPEQYQKLRQAFLSGLTLAELNRELKQQLSQDTTLVLMQPKGEPEVNVKALQEIYNGIMAPQTVAEEEVAPAEAVETAPVMPTTAQ” as the sequence, how does the “soluble on expression in E. coli” value read?
A: soluble

Q: With “MRNLIISAALVAASLFGMSAQAAEPIESGKQYVELTSAVPVAVPGKIEVIELFWYGCPHCYAFEPTINPWVEKLPSDVNFVRIPAMFGGPWDAHGQLFITLDTMGVEHKVHAAVFEAIQKGGKRLTDKNDMADFVATQGVNKDDFLKTFDSFAVKGKIAQYKELAKKYEVTGVPTMIVNGKYRFDLGSAGGPEKTLQVADQLIDKERAAAKAAK” as the sequence, how does the “soluble on expression in E. coli” value read?
A: not soluble

Q: For “MTVDHRQWAREAIRIIEADFQRSADTHLIPLETPGLPGVELYFKDESSHPTGSLKHRLARSLFLYALCNGWLRPAAPVIEASSGSTAISEAYFARLLGLPFIAVMPASTSKEKIAQIAFYGGQSHLVEDPTQIYAESERLARESGGHFMDQFTYAERATDWRANNNIAESIFQQMRHEPYPTPTWLISSPGTGGTLATLGRYVRYRQHCTRVLCADAERSVFFDAYVSGDRGLTLDCGSRIEGIGRPRVEASFLPEVIDAMVKVPDAWSLAAMHYLARRLGRRVGGSSGTNLIGALVAARQMVAAGEKGSLVAILCDGGERYATTYYDPVWLARQGYALEPLVEALAACIERGVALPDGLLVAG”, which “soluble on expression in E. coli” value is on record?
A: not soluble

Q: For “MAQDGDRHHIFVSAPPPPPPSSSIPAPSQPNRLEKEPLIDEETDMIDESRATYWKGCEFLKASGLYSSKCELV”, which “soluble on expression in E. coli” value is on record?
A: not soluble

Q: Which “soluble on expression in E. coli” value does the source give for “MVNKEHFSKKFDADLEEIRTRVLQMGGLVEEQIKNAIEALTEGNEHMIEQVIDNDHRVNAMEVKIDELCSQIIVRRQPTAIDLRMIMTVINTITDLERIGDEAAKIARMAKLIYAADRMYTPRFVEIRHIAAIAMDMLRKALDAFARVDPNASAEIVRQDEQVDEEFRSIIRHLVTFMMEDPRKISTAIEILFAAKAVERIGDHAKNMSEYVVYMVKGKDVRHVSADEIEREVGK” here?
A: not soluble

Q: Which “soluble on expression in E. coli” value does the source give for “MSLEIVQEGIAKIIVPEIPKTVSSDMPVFYNPRMRVNRDLAVLGLEYLCKKLGRPVKVADPLSASGIRAIRFLLETSCVEKAYANDISSKAIEIMKENFKLNNIPEDRYEIHGMEANFFLRKEWGFGFDYVDLDPFGTPVPFIESVALSMKRGGILSLTATDTAPLSGTYPKTCMRRYMARPLRNEFKHEVGIRILIKKVIELAAQYDIAMIPIFAYSHLHYFKLFFVKERGVEKVDKLIEQFGYIQYCFNCMNREVVTDLYKFKEKCPHCGSKFHIGGPLWIGKLWDEEFTNFLYEEAQKREEIEKETKRILKLIKEESQLQTVGFYVLSKLAEKVKLPAQPPIRIAVKFFNGVRTHFVGDGFRTNLSFEEVMKKMEELKEKQKEFLEKEGHHHHHH” here?
A: soluble

Q: With “MAGRVHPRQLAFSLPHAESLSRDNFLEGPANAAGLALIDGWPEWPNRIMWLAGPEGSGKSHLAAIWAEEAGARSTTANALSAAGVPGALATGALVVEDLKAKDFDERALFHLMNLAREDGAYVLFTGRDVPAALDIELNDLRSRLRAVPVVMLLPPDDQLFRGLIVKFCADRQLTVDESVVSYLATRLERSSAAARQAVELLDSEALRLGRPVTRALAAELLRDALEHHHHHH” as the sequence, how does the “soluble on expression in E. coli” value read?
A: soluble

Q: With “MSNVQTSAEREIVDLSHLAFDCGMLGRLKTVSWTPVIAGDSFELDAVGALRLSPLRRGLAIDSKVDFFTFYIPHRHVYGDQWIQFMRDGVNAQPLPSVTCNRYPDHAGYVGTIVPANNRIPKFLHQSYLNIYNNYFRAPWMPERTEANPSNLNEDDARYGFRCCHLKNIWSAPLPPETKLAEEMGIESNSIDIMGLQAAYAQLHTEQERTYFMQRYRDVISSFGGSTSYDADNRPLLVMHTDFWASGYDVDGTDQSSLGQFSGRVQQTFKHSVPRFFVPEHGVMMTLALIRFPPISPLEHHYLAGKSQLTYTDLAGDPALIGNLPPREISYRDLFRDGRSGIKIKVAESIWYRTHPDYVNFKYHDLHGFPFLDDAPGTSTGDNLQEAILVRHQDYDACFQSQQLLQWNKQARYNVSVYRHMPTVRDSIMTS” as the sequence, how does the “soluble on expression in E. coli” value read?
A: soluble

Q: With “SQRGVLEDEQMYQRCCNLFEKFFPSSSYRRPVGISSMVEAMVSRARIDARIDFESGRIKKEEFTEIMKICSTIEELRRQK” as the sequence, how does the “soluble on expression in E. coli” value read?
A: soluble

Q: With “MGSDKIHHHHHHMMIMLDPFSEKAKELLKGFGSINDFMDAIPKIVSVDDVIERIRVVKNEKLIDKFLDQDNVMDLAQFYALLGALSYSPYGIELELVKKANLIIYSERLKRKKEIKPEEISIDVSTAIEFPTEDVRKIERVYGKIPEYTMKISDFLDLVPDEKLANYYIYEGRVYLKREDLIRIWSKAFERNVERGVNMLYEIRDELPEFYRKVLGEIQAFAEEEFGRKFGEIQGGKLRPEFFPPCIKNALKGVPQGIRNYAITVLLTSFLSYARICPNPPRRNVRVKDCIKDIRVITEEILPIIIEAANRCSPPLFEDQPNEIKNIWYHLGFGYTANPSLEDSGNSTWYFPPNCEKIRANAPQLCTPDKHCKYIRNPLTYYLRRLYLEGRRNAPKRGNKRGKKELLHQ” as the sequence, how does the “soluble on expression in E. coli” value read?
A: not soluble

Q: With “MEKFGKPLEENGKEATATVIGLGKLGSEELNYYSDVDLMFIHSTDKGKAGNLSLNDFFQRLFQKVVKLLNAQTPEGVPYFVDLDLRPFGKSGPLSMPLRSAELYYESYGRIWERFALLRARYCAGDEELAQKFMKEVVRPFVFGPADYKLVEEIRLMKKRIEAEAKKKFIKGYNVKTGEGGIREVEFSVQSLVILLGSKTPILRESNTYRAIYKLMQKGVFSSEEAQKLEESYTFLRKLEHRIQLRECLQTQVLKESDKETFAKFLGFESKEEFEEKLKETRAFVKSVFSQILPEREEEELDELQEAVIMEDEESGTQILKQKGFKSTRQIFTLLSEPLYGSMNVHFTEKEKKLYIKLIPKLVNLALSSQNPDQSIKNFFKFFFNPTGRRVILSEHKREEFLEKLFTVFSVSDYLSHLVARNPDLVEDALTLYRDFPKFEDFKREFEKYRETLNLSPENLYRRFKTVWEVRIGLVYLLKEEDRYEKLKKLYISLSTLADFILSNLWKDITLEENTALLYALGKLGSRELNFNSDLDLVFAVKSLEEKEKVHEKAKELVRFLTAHTTEGYLYSVDFRLRPMGSKGELVPTFDFYKKYFEKEARTWERLAWTRARYITGNEEFKEEFERLIENFLFEKPWGEKEKREVYEMRMKLQSVAKRGRGVVDLKLGEGGIVDGEFLVQYLLIKEKIRETSMIRGFEVLMEKYPRLKEAYDSFMFLRLVETHLRLSKERGTSVLSEQDIPKVALSLGMKPEELKESIKEKMKKMREVFNEFLAQ” as the sequence, how does the “soluble on expression in E. coli” value read?
A: not soluble

Q: With “MLTGLFFGSFNPMHIGHLALANYLTEYTPIGQLWFVPSPLNPLKNTQELLPYDLRCELIEQAIRKDIRFQVLRIEELLPSPHYTIRTLRALSMLYPHHRFALLIGADNWQSFDRWKDHHRLMAKYELIIYPRFGYEVDDTTLPTGCRYIHDAPRIEISSTQIRTSILEGKDLRYWLPLPESQDVIASALQSCLSPKR” as the sequence, how does the “soluble on expression in E. coli” value read?
A: not soluble

Q: Which “soluble on expression in E. coli” value does the source give for “MGSDKIHHHHHHMRIVAVTDIHGNMASTVALANILKKIEAELLLIAGDITHFSGGEIAKQILEPLLKLGVRVLAVMGNCDGKDVPKVLDELGINVHNARVEVKKVGVVGFGGSSVTPFSTIWEFSEEEIYSSLKRNYRSGDIVLTHAPPYRTRIDKTFSGIHAGSKGLRKFIEEEQPPICICGHIHEARGIDKIGETLVVNPGPLSRRYYAVIDSETWEVKLERL” here?
A: not soluble

Q: With “MSLTVRLRPHHLLCMLTYIGKGYTSGFVENYDRVAFRLNAGEDIELVEGADDVCEGLLCESHAHCFNDGIVQRDETARLSVSTLLGETLIAGKRLRVTPDFLAKMRLAFAAGDIRQACRGCQWIKLCDRIAASGFAGVKIGVPSQVVPKDATRHPMLRPKYGPSGRKLEGHHHHHH” as the sequence, how does the “soluble on expression in E. coli” value read?
A: not soluble

Q: For “MAHHHHHHMMSRFETSPRDRRYNSAVRSSLFSFVLRRRRNLHDKKKPPLSANGPLTSVVHPRARNHLPDEVNLTTTLVRSCFCINIAPLPARSCASYSPRCSEQTVSRFFPHPFTFRASAIRGHNARLQLRRCTHHFLETPL”, which “soluble on expression in E. coli” value is on record?
A: not soluble

Q: Which “soluble on expression in E. coli” value does the source give for “MQTQQERISTGVKGLDELIEGGLIPGRVYLITGPPGSGKTTFGMQFLLEGARRGEKVAYISLIHKPEEVVRDMVRFDPSVYVYVNNWRLILYDLGPILWRESTKVPTWRSVLSRIREITENEKITRLVIDPLTAIDFPLQDPVEKRVELAKFVRSLENLGVTTYLIAEMVELDKYSEEHYLVSGIIMLHYFMHEGRMIRAIQIFKMRGTKHDPNLKLLKFTDQGLVVYNKSPFEVV” here?
A: soluble

Q: For “RIWRIIPDTSVIIDGRLSSRIKSGEFGSAEVIIPEAVVSELEAQANKGREIGFKGLEELSELRKLADRGDIQLKFSGVQPSLEEIKLSREGRVDALIRQTALDEGGLFVSEDRVQSLIARAKGLDVEYMHPKV”, which “soluble on expression in E. coli” value is on record?
A: not soluble

Q: For “MTQPLVGKQILIVEDEQVFRSLLDSWFSSLGATTVLAADGVDALELLGGFTPDLMICDIAMPRMNGLKLLEHIRNRGDQTPVLVISATENMADIAKALRLGVEDVLLKPVKDLNRLREMVFACLYPSMFN”, which “soluble on expression in E. coli” value is on record?
A: soluble

Q: For “MSGVSLGRGQNANAAYLDNIKELGFKLVRRPTGGGALLHPEDNEITYSVVLSASNTIAKLSVDESAVEIAKGILYTLQILGENVDIRGLGDMKKHDLCYLRSGSSDVIVAGRKISGSAQVRDDKALLQHGTLLLRFEPEI”, which “soluble on expression in E. coli” value is on record?
A: soluble

Q: For “MPEGPEVALTADILEKYFKGKTLEYIDFISGRYSKSEPEGYDDFIANLPLKVSNVDTKGKFLWFELFDPNDKSNKWYIWNTFGLTGMWSLFEAKYTRAVLSFDNELMAYFSDMRNFGTFKFSNSEKELKRKLNELGPDFLKNDDIDISKIKKYKQPIVALLMDQKKIGSGLGNYLVAEILYRAKIDPHKLGSNLTDQEIENLWYWIKYETKLAYDSNHIGYMVNLENESSKIGRKNYHPNIHPTEKEFDFLVYRKKKDPNGNKVIADKIIGSGKNKRTTYWAPAIQKLEHHHHHH”, which “soluble on expression in E. coli” value is on record?
A: soluble

Q: Which “soluble on expression in E. coli” value does the source give for “MGSDKIHHHHHHMSFSLRNYQVELILDIKKSMLAGHRKIMVQSPPRSGKTVCMAHIAKNATNKQKTVLFFSHRKEINEQVFETFSRAGVDMGLVYIGTVGSIVRKLGKLPVPTLVLVDEAHHIKASQYQQILKYYHQAVQLFFTGTPIRLDGSGFDDMADDLVVGKSILWLQEHGNISEFDYYSINLLDQAKLRKRQGEYTNQSIDDSFDFSNSTAIT” here?
A: not soluble
